The text below walks through data of patent US20140213531A1 (POLYPHOR, published 2014).

Common to all, as to assay: cell-based or functional assay
For assay [1], the target named is T1, CathepsinG, from human neutrophils (human, UniProt P08311 21-244).
T1 sequence (looked up): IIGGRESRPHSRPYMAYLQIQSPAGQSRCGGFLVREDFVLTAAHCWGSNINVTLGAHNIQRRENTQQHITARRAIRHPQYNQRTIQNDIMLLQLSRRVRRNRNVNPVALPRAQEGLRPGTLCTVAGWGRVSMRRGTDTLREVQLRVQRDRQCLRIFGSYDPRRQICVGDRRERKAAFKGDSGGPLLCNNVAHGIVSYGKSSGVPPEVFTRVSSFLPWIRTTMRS

Assay [2] deals with T2, Elastase from human neutrophils (human, UniProt P08246 30-247, limits assumed).
T2 sequence (looked up): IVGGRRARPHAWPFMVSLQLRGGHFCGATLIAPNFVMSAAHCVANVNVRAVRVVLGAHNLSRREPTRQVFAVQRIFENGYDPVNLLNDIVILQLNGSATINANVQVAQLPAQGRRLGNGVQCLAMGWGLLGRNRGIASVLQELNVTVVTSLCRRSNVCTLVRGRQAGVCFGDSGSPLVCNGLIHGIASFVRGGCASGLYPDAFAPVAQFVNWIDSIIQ

Assay [3] concerns the target Trypsin, Iodination grade, from human pancreas (human, UniProt P07477 24-247).
The target in assay [4] is Chymotrypsin, from human pancreas (human, UniProt P17538 19-263).
Chymotrypsin, from human pancreas, sequence (P17538 19-263): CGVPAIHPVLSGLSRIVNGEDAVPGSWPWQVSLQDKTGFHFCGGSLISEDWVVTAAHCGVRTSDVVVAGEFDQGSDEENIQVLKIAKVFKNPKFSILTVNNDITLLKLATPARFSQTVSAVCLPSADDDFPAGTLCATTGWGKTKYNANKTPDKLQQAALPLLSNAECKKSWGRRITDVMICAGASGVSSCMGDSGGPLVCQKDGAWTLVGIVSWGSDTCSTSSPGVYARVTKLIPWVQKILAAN
For another assay, the target named is T3, Chymase, from human skin (human, UniProt P23946 22-247).
T3 sequence (looked up): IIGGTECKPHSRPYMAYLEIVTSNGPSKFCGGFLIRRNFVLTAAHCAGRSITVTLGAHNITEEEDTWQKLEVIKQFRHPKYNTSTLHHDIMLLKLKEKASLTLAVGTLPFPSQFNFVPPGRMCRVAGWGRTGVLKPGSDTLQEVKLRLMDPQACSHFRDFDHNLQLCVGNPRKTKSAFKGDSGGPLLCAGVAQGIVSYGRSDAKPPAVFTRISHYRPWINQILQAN

The target in assay [5] is Thrombin, from Human Plasma, high activity (human, UniProt P00734 328-622).
For assay [6], the target named is Coagulation Factor Xa, from human plasma (human, UniProt P00742 41-488, limits assumed).
Coagulation Factor Xa, from human plasma, sequence (P00742 41-488 limits assumed): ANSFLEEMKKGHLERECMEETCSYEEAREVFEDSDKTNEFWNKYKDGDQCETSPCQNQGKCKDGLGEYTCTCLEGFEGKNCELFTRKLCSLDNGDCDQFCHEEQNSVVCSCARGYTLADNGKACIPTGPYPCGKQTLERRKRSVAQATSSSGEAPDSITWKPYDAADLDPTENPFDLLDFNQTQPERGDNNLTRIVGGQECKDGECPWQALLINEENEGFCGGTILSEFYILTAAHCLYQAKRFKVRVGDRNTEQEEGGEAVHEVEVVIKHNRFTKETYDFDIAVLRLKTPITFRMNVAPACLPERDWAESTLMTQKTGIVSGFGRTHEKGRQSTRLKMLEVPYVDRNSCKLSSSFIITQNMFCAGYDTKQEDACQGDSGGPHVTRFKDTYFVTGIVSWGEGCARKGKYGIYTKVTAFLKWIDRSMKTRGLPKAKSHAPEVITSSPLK
Assay [7] concerns the target Urokinase from human urine (human, UniProt P00749 21-431, limits assumed).
For assay [8], the target named is Tryptase, from human lung (human, UniProt Q15661 31-275, limits assumed).
Tryptase, from human lung, sequence (Q15661 31-275 limits assumed): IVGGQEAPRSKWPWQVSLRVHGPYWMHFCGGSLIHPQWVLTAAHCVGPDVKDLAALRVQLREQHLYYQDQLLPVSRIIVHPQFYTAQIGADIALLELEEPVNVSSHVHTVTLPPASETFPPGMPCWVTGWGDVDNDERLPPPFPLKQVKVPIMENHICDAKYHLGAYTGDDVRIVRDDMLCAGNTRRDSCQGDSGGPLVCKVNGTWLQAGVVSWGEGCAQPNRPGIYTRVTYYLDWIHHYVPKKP

B1: Example 47 (peptide)
peptide: FCTKSDPPICS
HELM: PEPTIDE1{F.C.T.K.S.D.P.P.I.C.S.[dP].D}$PEPTIDE1,PEPTIDE1,2:R3-10:R3|PEPTIDE1,PEPTIDE1,1:R1-13:R2$$$V2.0
SMILES: CC[C@H](C)[C@@H]1NC(=O)[C@@H]2CCCN2C(=O)[C@@H]2CCCN2C(=O)[C@H](CC(=O)O)NC(=O)[C@H](CO)NC(=O)[C@H](CCCCN)NC(=O)[C@H]([C@@H](C)O)NC(=O)[C@@H]2CSSC[C@H](NC1=O)C(=O)N[C@@H](CO)C(=O)N1CCC[C@@H]1C(=O)N[C@@H](CC(=O)O)C(=O)N[C@@H](Cc1ccccc1)C(=O)N2
For B1, the IC50 was 64 nmol in [1] and > 10000 nmol in [2]. Further, the “% inhibition at 100 µM” value in assay [3] was determined as 87%; in assay [4], 1%; with Chymase, from human skin, 8.2%; in assay [5], 0%; in [6] it was 9.3%; in [7], 6.3%. The “% inhibition at 100 µM” value in [8] was 0%.

B2: Example 46 (peptide)
peptide: FCTKSDPPICS
HELM: PEPTIDE1{F.C.T.K.S.D.P.P.I.C.S.[dD].P}$PEPTIDE1,PEPTIDE1,2:R3-10:R3|PEPTIDE1,PEPTIDE1,1:R1-13:R2$$$V2.0
SMILES: CC[C@H](C)[C@@H]1NC(=O)[C@@H]2CCCN2C(=O)[C@@H]2CCCN2C(=O)[C@H](CC(=O)O)NC(=O)[C@H](CO)NC(=O)[C@H](CCCCN)NC(=O)[C@H]([C@@H](C)O)NC(=O)[C@@H]2CSSC[C@H](NC1=O)C(=O)N[C@@H](CO)C(=O)N[C@H](CC(=O)O)C(=O)N1CCC[C@H]1C(=O)N[C@@H](Cc1ccccc1)C(=O)N2
Regarding B2, the figures for the IC50 in assay [1] and in assay [2] were 87.5 nmol and > 100000 nmol, respectively. Besides, the “% inhibition at 100 µM” value was 95% in assay [3]; 0% in [4]; 10.2% with Chymase, from human skin; 6.9% in assay [5]; 12.2% in assay [6]; 5.8% in [7]. In addition, in assay [8], the “% inhibition at 100 µM” value came out at 44.1%.

B3: Example 4 (peptide)
peptide: FCTKSDPPICS
HELM: PEPTIDE1{F.C.T.K.S.D.P.P.I.C.S.[dP].P}$PEPTIDE1,PEPTIDE1,2:R3-10:R3|PEPTIDE1,PEPTIDE1,1:R1-13:R2$$$V2.0
SMILES: CC[C@H](C)[C@@H]1NC(=O)[C@@H]2CCCN2C(=O)[C@@H]2CCCN2C(=O)[C@H](CC(=O)O)NC(=O)[C@H](CO)NC(=O)[C@H](CCCCN)NC(=O)[C@H]([C@@H](C)O)NC(=O)[C@@H]2CSSC[C@H](NC1=O)C(=O)N[C@@H](CO)C(=O)N1CCC[C@@H]1C(=O)N1CCC[C@H]1C(=O)N[C@@H](Cc1ccccc1)C(=O)N2
As for B3, the IC50 in [1] was 91 nmol; in assay [2], > 100000 nmol. Besides, the “% inhibition at 100 µM” value in assay [3] was 96%; in assay [4], 1.8%; with Chymase, from human skin, 0%; in assay [5], 0%; in assay [6], 2.4%; in assay [7], 5.4%. In [8], the “% inhibition at 100 µM” value was determined as 0%.

As a reminder, the % inhibition is the share of the control response that was lost under treatment. High values mean a response far below the control, low ones a response near the control.
